# Several values for one entry are separate records, joined by “and”; a condition that tells them apart may be missing. Equal entries are not always repeated.
# Experiments:
# [1] = Induction of cytotoxic cellular response by HIV gp 120 peptide; settings: in vivo
# [2] = molecular target: Human Alpha 1 Anti-Trypsin Protein (Homo sapiens, UniProt P01009); assay: Antibody responses to human alpha 1 anti-trypsin protein after immunization; type: in vivo, mice
# [3] = Accell (no adjuvant), prime + 1 boost
# [4] = Accell (no adjuvant), prime only
# Human Alpha 1 Anti-Trypsin Protein, sequence (P01009 25-418): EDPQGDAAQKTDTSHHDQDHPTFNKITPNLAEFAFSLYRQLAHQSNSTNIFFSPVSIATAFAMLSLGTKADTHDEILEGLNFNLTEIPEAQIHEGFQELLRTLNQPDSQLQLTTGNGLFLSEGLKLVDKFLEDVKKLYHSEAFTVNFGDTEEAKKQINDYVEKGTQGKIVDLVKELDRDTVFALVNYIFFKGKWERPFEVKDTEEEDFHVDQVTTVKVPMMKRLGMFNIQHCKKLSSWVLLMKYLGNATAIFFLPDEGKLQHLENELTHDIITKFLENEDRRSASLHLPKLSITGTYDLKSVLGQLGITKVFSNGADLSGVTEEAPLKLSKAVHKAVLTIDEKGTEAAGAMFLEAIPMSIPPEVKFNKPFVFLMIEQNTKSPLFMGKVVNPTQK
compound,measurement,setting,value
CC[C@H](C)[C@H](NC(=O)[C@@H](NC(=O)[C@@H](NC(=O)[C@H](Cc1ccccc1)NC(=O)[C@H](C)NC(=O)[C@H](CCCNC(=N)N)NC(=O)CNC(=O)[C@@H]1CCCN1C(=O)CNC(=O)[C@H](CCCNC(=N)N)NC(=O)[C@H](CCC(N)=O)NC(=O)[C@@H](NC(=O)[C@@H](N)CCCNC(=N)N)[C@@H](C)CC)C(C)C)[C@@H](C)O)C(=O)NCC(=O)N[C@@H](CCCCN)C(=O)O [HIV gp 120],regimen required to induce a cytotoxic cellular response,[1],"a single dose, i.e. the prime, is all that is required"
Human Alpha 1 Anti-Trypsin Protein: Human Alpha 1 Anti-Trypsin Protein used as immunogen,number with detectable antibody/total number tested,[2]; [3],4/4
same,reciprocal antibody titers,[2]; [3],9500 and 6500 and 5500
same,number with detectable antibody/total number tested,[2]; [4],4/4
same,reciprocal antibody titers,[2]; [4],350 and 375 and 210 and 250
same,number with detectable antibody/total number tested,"[2]; injection with Freund's adjuvant, prime + 1 boost",4/4
same,number with detectable antibody/total number tested,"[2]; injection with Freund's adjuvant, prime only",4/4

# From US20050025777A1, “Particle-mediated delivery of antigens” (priority 1994, published 2005)
